# Laboratory results as given in the supplement of paper PMC11780869.
# Tested on: Bacillus subtilis
# Experiment: cleaved RNA product abundance (RNA/gDNA barcode ratio) relative to median wild-type variant (ratio to wild type); higher = more accumulation of the downstream cleavage product
# How it was run: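 Reporter mRNAs based on truncated aprE or tetM carried barcoded, mutagenized RNase Y cleavage-site windows built from oligos with a 9% error rate and were integrated into the B. subtilis chromosome. Cultures grew in LB at 37°C from OD600 0.0003 to 0.3. Cleaved RNA was gel-selected, reverse transcribed and barcode-sequenced together with genomic DNA barcodes, and UMIs were collapsed. Cleaved product abundance is the per-construct ratio of RNA to gDNA barcodes, scaled to the median of constructs carrying the unmutated site.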
# [1] = experiment (reporter, strain, medium): exp 2b: truncated aprE reporter, strain BJT200, cleavage site: cggR-gapA (positions -7 to +36 mutated)
# [2] = experiment (reporter, strain, medium): exp 4a: truncated aprE reporter, strain BJT201 with 2% xylose (RNase J1 expressed), cleavage site: cggR-gapA (positions -7 to +36 mutated)
# [3] = experiment (reporter, strain, medium): exp 8a: truncated aprE reporter, strain BJT201 with 2% xylose (RNase J1 expressed), cleavage site: glnRA (positions -5 to +31 mutated)
sequence,measurement,setting,value
ACAGACGAAGGAGCCGCAAAGAAGTTATTATGGTATGAATAATCCCTCAATATAAATATCTCTCACTTATTTAAA,cleaved RNA product abundance,[1],0.0925
same,cleaved RNA product abundance,[2],0.14
ACAGACGAAGGAGCCGCAAAGAAGTTATTAAGGGATGAATACTCCGTCAATATAAATATCTCTCACTTATTTAAA,cleaved RNA product abundance,[2],0.126
ACAGACGAAGGAGCCGCAAAGAAGTTATTAAGGGATGACTATTCCCTCAATATAAATATCTCTCACTTATTTAAA,cleaved RNA product abundance,[2],0.804
ACAGACGAAGGAGCCGCATAGAATTTATTAAGGGATGAATAATCCCTCAATATAAATATCTCTCACTTATTTAAA,cleaved RNA product abundance,[1],0.76
same,cleaved RNA product abundance,[2],0.514
ACAGACGAAGGAGCCGCAAAGAAGTTATTAAGGAATGAATATTCCCTCAATATAAATATCTCTCACTTATTTAAA,cleaved RNA product abundance,[1],0.178
same,cleaved RNA product abundance,[2],0.279
CGACATGTCCCGCTTCTTTCATTAATCCGTTAGGAACTGTTTTGCTATATACATTTACTTTTTAAGAGGAGGAAT,cleaved RNA product abundance,[3],0.247
ACAGACGAAGGAGCCGCAAAGAAGTTATTAAGGGATGAATAATCCCACAATATAAATATTTCTCACTTATTTAAA,cleaved RNA product abundance,[2],0.386
ACAGACGAAGGAGCCGCAAAGAAGTTATTAAGGGATGAATAAACCCTCAACATAAATATCTCTCACTTATTTAAA,cleaved RNA product abundance,[1],0.122
same,cleaved RNA product abundance,[2],0.0675
CGACATGTCCCGCTTCTTTCATTAATCCTTTAGCAACTGATTTGCTATATACATTTACCTTTTAAGAGGAGGAAT,cleaved RNA product abundance,[3],0.509
ACAGACGAAGGAGCCGCAAAGAAGTTATTAAGGGATGACTACTCCCTCAATATAAATATCTCTCACTTATTTAAA,cleaved RNA product abundance,[2],0.446
ACAGACGAAGGAGCCGCAAAGAAATTATTAAGTGATGAATAATCCCTCAATATAAATATCTCTCACTTATTTAAA,cleaved RNA product abundance,[1],0.107
same,cleaved RNA product abundance,[2],0.125
ACAGACGAAGGAGCCGCGAAGAAGTTATTAAGGGATGAATAAACCCTCAATATAAATATCTCTCACTTATTTAAA,cleaved RNA product abundance,[2],0.467
CGACATGTCCCGCTTCTTTCATTATTACGTTAGCAACCGTTTTGCTATATACATTTACCTTTTAAGAGGAGGAAT,cleaved RNA product abundance,[3],1.06
ACAGACGAAGGAGCCGCAAAGAAGTTATTAACGGATGAATAATCCCGCAATATAAATATCTCTCACTTATTTAAA,cleaved RNA product abundance,[2],0.392
ACAGACGAAGGAGCCGCAAAGAATTTATTAAGGGATGAATAATCCCTCAATATAAATATTTCTCACTTATTTAAA,cleaved RNA product abundance,[2],0.259
CGACATGTCCCGCTTCTTTCATTAATCCGTTCGCAACTTTTTTGCTATATACATTTACCTTTTAAGAGGAGGAAT,cleaved RNA product abundance,[3],0.381
CGACATGTCCCGCTTCTTTCATTAATCCGTTAGCAACTGTTTTGCTATATAGATTTACCCTTTAAGAGGAGGAAT,cleaved RNA product abundance,[3],0.684
ACAGACGAAGGAGCCGCAAAGAATTTTTTAAGGGATGAATAATCCCTCAATATAAATATCTCTCACTTATTTAAA,cleaved RNA product abundance,[2],0.216
ACAGACGAAGGAGCCGCAAAGAAGTGATTAAAGGATGAATAATCCCTCAATATAAATATCTCTCACTTATTTAAA,cleaved RNA product abundance,[2],0.19
CGACATGTCCCGCTTCTTTCATTAATCCGTTACGAACTGTTTTGCTATATACATTTACCTTTTAAGAGGAGGAAT,cleaved RNA product abundance,[3],0.291
ACAGACGAAGGAGCCGCAAAGAAGTTATTTAGGGATGAATAATCACTCAATATAAATATCTCTCACTTATTTAAA,cleaved RNA product abundance,[2],0.137
ACAGACGAAGGAGCCGCAAATAAGTTATTAAGGGATGAATAATCCCTCAATATAAATACCTCTCACTTATTTAAA,cleaved RNA product abundance,[2],0.538
CGACATGTCCCGCTTCTTTCATTAATCCGTTAGCAACTGTTTTGCTATTTACATGTACCTTTTAAGAGGAGGAAT,cleaved RNA product abundance,[3],0.0435
CGACATGTCCCGCTTCTTTCATTAATCCGTAAGCAACTGTTTTGCTATATACATTTACTTTTTAAGAGGAGGAAT,cleaved RNA product abundance,[3],0.641
ACAGACGAAGGAGCCGCAAAGAAGTTATTAAGGGATGAATATTCCCTCAATATAAATATCTCTCACTTATTTAAA,cleaved RNA product abundance,[1],0.675
same,cleaved RNA product abundance,[2],0.699
same,cleaved RNA product abundance,"experiment (reporter, strain, medium): exp 6: tetM reporter, strain 168, cleavage site: cggR-gapA (positions -7 to +36 mutated)",0.84
ACAGACGAAGGAGCCGCAAAGAAGCTATTAAGGTATGAATAATCCCTCAATATAAATATCTCTCACTTATTTAAA,cleaved RNA product abundance,[1],0.0903
same,cleaved RNA product abundance,[2],0.0903
ACAGACGAAGGAGCCGCAAAGAAGTTAAAAAGGGATGAATAATCCCTCAATATAAATATCTCTCACTTATTTAAA,cleaved RNA product abundance,[1],0.268
same,cleaved RNA product abundance,[2],0.392
ACAGACGAAGGAGCCGCAAAGTAGTTATTAAGGGATGAATAATCCCTCAATACAAATATCTCTCACTTATTTAAA,cleaved RNA product abundance,[2],0.0777
CGACATGTCCCGCTTCTTTCATTATTCCGTTAGCAAATGTTGTGCTATATACATTTACCTTTTAAGAGGAGGAAT,cleaved RNA product abundance,[3],0.444
CGACATGTCCCGCTTCTTTCATTACTCCGTTAGCAACTGTTTTGCTATATACATTTTCCTTTTAAGAGGAGGAAT,cleaved RNA product abundance,[3],0.403
ACAGACGAAGGAGCCGCAAAGAAATGATTAAGGGATGAATAATCCCTCAATATAAATATCTCTCACTTATTTAAA,cleaved RNA product abundance,[1],0.354
same,cleaved RNA product abundance,[2],0.457
